Measured values published in patent US20100196361A1, “Method of inhibition of vascular development using an antibody” (DYAX CORP., priority 2003, published 2010).

Target: T1, human Tie1 Fc (Homo sapiens, UniProt P35590)
T1 construct: selected against the Tie1 extracellular domain fused to human Fc or to a histidine purification tag
T1 sequence (P35590 22-759 limits assumed): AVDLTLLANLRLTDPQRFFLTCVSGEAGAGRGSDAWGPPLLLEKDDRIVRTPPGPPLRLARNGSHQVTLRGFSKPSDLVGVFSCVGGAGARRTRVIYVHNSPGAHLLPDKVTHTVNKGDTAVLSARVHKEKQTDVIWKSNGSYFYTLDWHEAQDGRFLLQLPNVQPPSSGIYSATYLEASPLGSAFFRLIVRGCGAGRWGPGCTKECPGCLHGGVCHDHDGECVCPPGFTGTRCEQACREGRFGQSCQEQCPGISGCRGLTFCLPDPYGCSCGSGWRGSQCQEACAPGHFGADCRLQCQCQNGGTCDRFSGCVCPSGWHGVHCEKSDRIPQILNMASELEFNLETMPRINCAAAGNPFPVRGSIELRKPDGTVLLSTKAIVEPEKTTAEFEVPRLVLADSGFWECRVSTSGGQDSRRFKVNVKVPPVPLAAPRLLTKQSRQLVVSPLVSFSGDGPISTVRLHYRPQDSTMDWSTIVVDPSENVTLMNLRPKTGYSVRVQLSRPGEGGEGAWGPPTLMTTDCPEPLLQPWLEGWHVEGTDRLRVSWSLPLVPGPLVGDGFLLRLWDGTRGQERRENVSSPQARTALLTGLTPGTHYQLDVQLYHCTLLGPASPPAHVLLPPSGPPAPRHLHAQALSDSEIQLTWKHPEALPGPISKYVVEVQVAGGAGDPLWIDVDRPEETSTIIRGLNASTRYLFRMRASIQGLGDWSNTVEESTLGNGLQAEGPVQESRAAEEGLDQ
Assay: ELISA on recombinant Tie1-Fc
Type: binding
Conditions: soluble Fab 5 or 1 μg per 100 μl; 500 or 50 ng antigen per well
Method: To evaluate if the conversion of any of the somatic mutations in the framework of E3 back to germline residues had any effect on binding activity the soluble Fabs were produced. The soluble expression vector containing the parental E3 Fab and the germlined E3 Fab construct were grown overnight at 30° C. in 2×TY broth containing 100 μg/ml ampicillin and 2% glucose and use 4 ml of this overnight culture to inoculate 400 ml of 2×TY broth containing 100 μg/ml ampicillin and 0.1% glucose. Cells were grow at 37° C. until an OD600 of 0.8-1.0, 1 mM IPTG was added and the culture was maintained at 30° C. for 4 hours. The cultures were spun down at 4,000 rpm for 15 min at 4 C. […] Dialyze against PBS using dialysis cassettes (SLIDE-A-LYSER™ Dialysis Cassettes, MWCO 10,000, Pierce, cat. no. 66380) and determine the protein concentration from the absorbance at 280 nm assuming that a 1 mg/ml solution has an absorbance of 0.86. The quality of the preparations can be analyzed by reducing and non-reducing SDS-PAGE.
Wells of an IMMULON™ 2 HB plate coated overnight with 500 ng or 50 ng of purified recombinant human Tie1-Fc target antigen per 100 microliters 0.1 M sodium bicarbonate buffer, pH 8.5. […] After washing the wells seven times 100 microliters TMB-H2O2 solution was added to each well and the plate read at 630 nm in an ELISA.

Molecule	binding to recombinant human Tie1-Fc in ELISA
parental E3 Fab: soluble Fab fragment of the parental E3 anti-Tie1 antibody (antibody, V domains shown) VH: EVQLLESGGGLVQPGGSLRLSCAASGFTFSMYGMVWVRQAPGKGLEWVSVISPSGGNTGYADSVKGRFTISRDNSKNTLYLQVNSLRAEDTAVYYCARAPRGYSYGYYYWGQGTLVTVSSASTKGPSVFPLAPSSKSTSGG VL: DIQMTQSPLSLSASVGDRVTITCRASQGIGHYLAWYQQKPGKVPKLLIYTASTLQSGVPSRFSGSGSGTDFTLTINSLQPEDVATYYCQQFNSYPHTFGQGTRLDIK	bound to the recombinant human Tie1-Fc target antigen
germlined E3 Fab: soluble Fab of E3 with LC framework regions germlined to DPK4; LC variable SEQ ID NO:159 (antibody, V domains shown) VH: EVQLLESGGGLVQPGGSLRLSCAASGFTFSMYGMVWVRQAPGKGLEWVSVISPSGGNTGYADSVKGRFTISRDNSKNTLYLQVNSLRAEDTAVYYCARAPRGYSYGYYYWGQGTLVTVSSASTKGPSVFPLAPSSKSTSGG VL: DIQMTQSPSSLSASVGDRVTITCRASQGIGHYLAWYQQKPGKVPKLLIYTASTLQSGVPSRFSGSGSGTDFTLTISSLQPEDVATYYCQQFNSYPHTFGQGTRLEIK	bound to the recombinant human Tie1-Fc target antigen
